Measurements published in the supplement of paper PMC9112550, “Optimization of the antimicrobial peptide Bac7 by deep mutational scanning” (BMC Biology, 2022).

Tested on: Escherichia coli TOP10
Test: shrunken log2 fold change of peptide-encoding DNA abundance (4.5 h post-induction vs induction); higher = less antimicrobial activity (less host growth inhibition)
Conditions: time post-induction: 4.5 h; library: site-saturation at positions 5, 18, 19, 20
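Also: peptides expressed intracellularly from a pBAD plasmid library in pooled LB shake-flask culture, induced with 0.3% L-arabinose, DNA abundance read by NGS, three biological replicates, DESeq2 with apeglm shrinkage.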

RRIRSRPPRLPRPRPRPVAEPRP
shrunken log2 fold change: 1.28

RRIRSRPPRLPRPRPRPVCWPRP
shrunken log2 fold change: 0.714

RRIRSRPPRLPRPRPRPVGNPRP
shrunken log2 fold change: -0.0399

RRIRSRPPRLPRPRPRPVKKPRP
shrunken log2 fold change: 0.0525

RRIRSRPPRLPRPRPRPVLMPRP
shrunken log2 fold change: -0.0465

RRIRSRPPRLPRPRPRPVNAPRP
shrunken log2 fold change: 0.319

RRIRSRPPRLPRPRPRPVNPPRP
shrunken log2 fold change: -0.118

RRIRSRPPRLPRPRPRPVPFPRP
shrunken log2 fold change: -0.237

RRIRSRPPRLPRPRPRPVQHPRP
shrunken log2 fold change: -0.0389

RRIRSRPPRLPRPRPRPVQPPRP
shrunken log2 fold change: 0.107

RRIRSRPPRLPRPRPRPVSFPRP
shrunken log2 fold change: 0.118

RRIRSRPPRLPRPRPRPVSGPRP
shrunken log2 fold change: 0.00238

RRIRSRPPRLPRPRPRPVSHPRP
shrunken log2 fold change: -0.188

RRIRSRPPRLPRPRPRPVSKPRP
shrunken log2 fold change: 0.236

RRIRSRPPRLPRPRPRPVSSPRP
shrunken log2 fold change: 0.0316

RRIRSRPPRLPRPRPRPVSTPRP
shrunken log2 fold change: -0.187

RRIRSRPPRLPRPRPRPVVCPRP
shrunken log2 fold change: -0.0186

RRIRSRPPRLPRPRPRPVWEPRP
shrunken log2 fold change: 0.118

RRIRSRPPRLPRPRPRPVWLPRP
shrunken log2 fold change: -0.388

RRIRSRPPRLPRPRPRPVYVPRP
shrunken log2 fold change: -0.525

RRIRSRPPRLPRPRPRPWAAPRP
shrunken log2 fold change: 0.327

RRIRSRPPRLPRPRPRPWADPRP
shrunken log2 fold change: -0.307

RRIRSRPPRLPRPRPRPWDEPRP
shrunken log2 fold change: -0.0358

RRIRSRPPRLPRPRPRPWDIPRP
shrunken log2 fold change: -0.211

RRIRSRPPRLPRPRPRPWDSPRP
shrunken log2 fold change: -0.729

RRIRSRPPRLPRPRPRPWDWPRP
shrunken log2 fold change: 0.676

RRIRSRPPRLPRPRPRPWEEPRP
shrunken log2 fold change: 0.0166

RRIRSRPPRLPRPRPRPWEFPRP
shrunken log2 fold change: 0.236

RRIRSRPPRLPRPRPRPWFEPRP
shrunken log2 fold change: -0.0139

RRIRSRPPRLPRPRPRPWGQPRP
shrunken log2 fold change: 0.0926

RRIRSRPPRLPRPRPRPWGYPRP
shrunken log2 fold change: -0.226

RRIRSRPPRLPRPRPRPWHLPRP
shrunken log2 fold change: -0.273

RRIRSRPPRLPRPRPRPWIYPRP
shrunken log2 fold change: -0.187

RRIRSRPPRLPRPRPRPWKTPRP
shrunken log2 fold change: -0.0527

RRIRSRPPRLPRPRPRPWLCPRP
shrunken log2 fold change: -0.0753

RRIRSRPPRLPRPRPRPWLGPRP
shrunken log2 fold change: -0.092

RRIRSRPPRLPRPRPRPWPNPRP
shrunken log2 fold change: -0.13

RRIRSRPPRLPRPRPRPWQAPRP
shrunken log2 fold change: 0.214

RRIRSRPPRLPRPRPRPWQVPRP
shrunken log2 fold change: 0.00514

RRIRSRPPRLPRPRPRPWRGPRP
shrunken log2 fold change: 0.59

RRIRSRPPRLPRPRPRPWTQPRP
shrunken log2 fold change: 0.149

RRIRSRPPRLPRPRPRPWVNPRP
shrunken log2 fold change: -0.0336

RRIRSRPPRLPRPRPRPWWCPRP
shrunken log2 fold change: 0.0769

RRIRSRPPRLPRPRPRPWWDPRP
shrunken log2 fold change: -0.137

RRIRSRPPRLPRPRPRPWWVPRP
shrunken log2 fold change: -0.2

RRIRSRPPRLPRPRPRPWYCPRP
shrunken log2 fold change: 0.017

RRIRSRPPRLPRPRPRPWYTPRP
shrunken log2 fold change: 0.0361

RRIRSRPPRLPRPRPRPYCHPRP
shrunken log2 fold change: -0.532

RRIRSRPPRLPRPRPRPYEQPRP
shrunken log2 fold change: -0.0601

RRIRSRPPRLPRPRPRPYEVPRP
shrunken log2 fold change: 0.07

RRIRSRPPRLPRPRPRPYFAPRP
shrunken log2 fold change: -0.645

RRIRSRPPRLPRPRPRPYFHPRP
shrunken log2 fold change: -0.853

RRIRSRPPRLPRPRPRPYFIPRP
shrunken log2 fold change: -1.06

RRIRSRPPRLPRPRPRPYGPPRP
shrunken log2 fold change: -0.401

RRIRSRPPRLPRPRPRPYIAPRP
shrunken log2 fold change: -0.917

RRIRSRPPRLPRPRPRPYIEPRP
shrunken log2 fold change: -0.183

RRIRSRPPRLPRPRPRPYIRPRP
shrunken log2 fold change: -0.0533

RRIRSRPPRLPRPRPRPYISPRP
shrunken log2 fold change: -0.0172

RRIRSRPPRLPRPRPRPYKMPRP
shrunken log2 fold change: -0.425

RRIRSRPPRLPRPRPRPYKSPRP
shrunken log2 fold change: -0.694

RRIRSRPPRLPRPRPRPYLMPRP
shrunken log2 fold change: -0.566

RRIRSRPPRLPRPRPRPYMEPRP
shrunken log2 fold change: 2.73

RRIRSRPPRLPRPRPRPYNLPRP
shrunken log2 fold change: -0.573

RRIRSRPPRLPRPRPRPYPIPRP
shrunken log2 fold change: -0.356

RRIRSRPPRLPRPRPRPYQGPRP
shrunken log2 fold change: -0.129

RRIRSRPPRLPRPRPRPYQNPRP
shrunken log2 fold change: -0.511

RRIRSRPPRLPRPRPRPYQTPRP
shrunken log2 fold change: -0.0406

RRIRSRPPRLPRPRPRPYREPRP
shrunken log2 fold change: 0.0503

RRIRSRPPRLPRPRPRPYRTPRP
shrunken log2 fold change: 0.00951

RRIRSRPPRLPRPRPRPYVSPRP
shrunken log2 fold change: -0.136

RRIRSRPPRLPRPRPRPYWIPRP
shrunken log2 fold change: -0.267

RRIRSRPPRLPRPRPRPYWNPRP
shrunken log2 fold change: 0.503

RRIRSRPPRLPRPRPRPYYYPRP
shrunken log2 fold change: -0.507

RRIRTRPPRLPRPRPRPAAQPRP
shrunken log2 fold change: 0.312

RRIRTRPPRLPRPRPRPADQPRP
shrunken log2 fold change: -0.0202

RRIRTRPPRLPRPRPRPADTPRP
shrunken log2 fold change: -0.215

RRIRTRPPRLPRPRPRPAEEPRP
shrunken log2 fold change: 0.0505

RRIRTRPPRLPRPRPRPAFCPRP
shrunken log2 fold change: 0.113

RRIRTRPPRLPRPRPRPAFMPRP
shrunken log2 fold change: -0.0227

RRIRTRPPRLPRPRPRPAFYPRP
shrunken log2 fold change: 0.116

RRIRTRPPRLPRPRPRPAIDPRP
shrunken log2 fold change: -0.206

RRIRTRPPRLPRPRPRPAIEPRP
shrunken log2 fold change: 0.0358

RRIRTRPPRLPRPRPRPAINPRP
shrunken log2 fold change: 0.0461

RRIRTRPPRLPRPRPRPALEPRP
shrunken log2 fold change: 0.122

RRIRTRPPRLPRPRPRPALPPRP
shrunken log2 fold change: 0.204

RRIRTRPPRLPRPRPRPALQPRP
shrunken log2 fold change: 0.278

RRIRTRPPRLPRPRPRPALRPRP
shrunken log2 fold change: 0.398

RRIRTRPPRLPRPRPRPANGPRP
shrunken log2 fold change: -0.213

RRIRTRPPRLPRPRPRPANHPRP
shrunken log2 fold change: -0.179

RRIRTRPPRLPRPRPRPAQFPRP
shrunken log2 fold change: -0.0946

RRIRTRPPRLPRPRPRPAQRPRP
shrunken log2 fold change: 0.356

RRIRTRPPRLPRPRPRPARFPRP
shrunken log2 fold change: 0.128

RRIRTRPPRLPRPRPRPARPPRP
shrunken log2 fold change: 0.883

RRIRTRPPRLPRPRPRPARTPRP
shrunken log2 fold change: 0.381

RRIRTRPPRLPRPRPRPATLPRP
shrunken log2 fold change: -0.197

RRIRTRPPRLPRPRPRPAVCPRP
shrunken log2 fold change: 0.712

RRIRTRPPRLPRPRPRPAVFPRP
shrunken log2 fold change: 0.271

RRIRTRPPRLPRPRPRPAVQPRP
shrunken log2 fold change: 0.0481

RRIRTRPPRLPRPRPRPAVTPRP
shrunken log2 fold change: 0.102

RRIRTRPPRLPRPRPRPAWWPRP
shrunken log2 fold change: 0.615

RRIRTRPPRLPRPRPRPAYAPRP
shrunken log2 fold change: 0.0376

RRIRTRPPRLPRPRPRPAYQPRP
shrunken log2 fold change: -0.0436

RRIRTRPPRLPRPRPRPCAKPRP
shrunken log2 fold change: 0.423

RRIRTRPPRLPRPRPRPCDNPRP
shrunken log2 fold change: -0.267

RRIRTRPPRLPRPRPRPCERPRP
shrunken log2 fold change: -0.018

RRIRTRPPRLPRPRPRPCFFPRP
shrunken log2 fold change: -0.202

RRIRTRPPRLPRPRPRPCFIPRP
shrunken log2 fold change: -1.05

RRIRTRPPRLPRPRPRPCGRPRP
shrunken log2 fold change: 0.155

RRIRTRPPRLPRPRPRPCIPPRP
shrunken log2 fold change: -1.3

RRIRTRPPRLPRPRPRPCKCPRP
shrunken log2 fold change: -1.16

RRIRTRPPRLPRPRPRPCKKPRP
shrunken log2 fold change: -0.0502

RRIRTRPPRLPRPRPRPCLLPRP
shrunken log2 fold change: -0.413

RRIRTRPPRLPRPRPRPCLRPRP
shrunken log2 fold change: 0.0877

RRIRTRPPRLPRPRPRPCMAPRP
shrunken log2 fold change: -0.172

RRIRTRPPRLPRPRPRPCNNPRP
shrunken log2 fold change: -0.276

RRIRTRPPRLPRPRPRPCNTPRP
shrunken log2 fold change: -0.21

RRIRTRPPRLPRPRPRPCSAPRP
shrunken log2 fold change: -0.413

RRIRTRPPRLPRPRPRPCSMPRP
shrunken log2 fold change: -0.179

RRIRTRPPRLPRPRPRPCSYPRP
shrunken log2 fold change: -0.129

RRIRTRPPRLPRPRPRPCTEPRP
shrunken log2 fold change: -0.237

RRIRTRPPRLPRPRPRPCTTPRP
shrunken log2 fold change: -0.0816

RRIRTRPPRLPRPRPRPCWIPRP
shrunken log2 fold change: -0.1

RRIRTRPPRLPRPRPRPCYEPRP
shrunken log2 fold change: -0.549

RRIRTRPPRLPRPRPRPCYHPRP
shrunken log2 fold change: -0.637

RRIRTRPPRLPRPRPRPDAEPRP
shrunken log2 fold change: 0.117

RRIRTRPPRLPRPRPRPDCPPRP
shrunken log2 fold change: -0.245

RRIRTRPPRLPRPRPRPDETPRP
shrunken log2 fold change: 0.0482

RRIRTRPPRLPRPRPRPDFQPRP
shrunken log2 fold change: 0.00444

RRIRTRPPRLPRPRPRPDGPPRP
shrunken log2 fold change: 0.126

RRIRTRPPRLPRPRPRPDHCPRP
shrunken log2 fold change: -0.116

RRIRTRPPRLPRPRPRPDHSPRP
shrunken log2 fold change: -0.0596

RRIRTRPPRLPRPRPRPDIMPRP
shrunken log2 fold change: -0.624

RRIRTRPPRLPRPRPRPDMHPRP
shrunken log2 fold change: -0.249

RRIRTRPPRLPRPRPRPDMKPRP
shrunken log2 fold change: -0.0377

RRIRTRPPRLPRPRPRPDMLPRP
shrunken log2 fold change: 0.035

RRIRTRPPRLPRPRPRPDPEPRP
shrunken log2 fold change: 0.155

RRIRTRPPRLPRPRPRPDRFPRP
shrunken log2 fold change: 0.0382

RRIRTRPPRLPRPRPRPDRYPRP
shrunken log2 fold change: 0.04

RRIRTRPPRLPRPRPRPDSSPRP
shrunken log2 fold change: -0.00751

RRIRTRPPRLPRPRPRPDVSPRP
shrunken log2 fold change: -0.223

RRIRTRPPRLPRPRPRPDWLPRP
shrunken log2 fold change: 0.514

RRIRTRPPRLPRPRPRPDWQPRP
shrunken log2 fold change: -0.0206

RRIRTRPPRLPRPRPRPDWTPRP
shrunken log2 fold change: -0.179

RRIRTRPPRLPRPRPRPDWVPRP
shrunken log2 fold change: 0.0189

RRIRTRPPRLPRPRPRPDYYPRP
shrunken log2 fold change: -0.356

RRIRTRPPRLPRPRPRPEANPRP
shrunken log2 fold change: -0.0399

RRIRTRPPRLPRPRPRPEAVPRP
shrunken log2 fold change: -0.0221

RRIRTRPPRLPRPRPRPECAPRP
shrunken log2 fold change: 0.459

RRIRTRPPRLPRPRPRPECEPRP
shrunken log2 fold change: 0.154

RRIRTRPPRLPRPRPRPECGPRP
shrunken log2 fold change: 0.51
